Results as given in the supplement of paper PMC12764529.
± gives the half width of the 95% confidence interval.

Assays:
[1] = folding stability dG unfold (combined trypsin and chymotrypsin); higher = more stable
Outline: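 Designed mini-proteins with no cysteine and under 80 residues were kept only if AlphaFold2 dimer inter-PAE was above 15. In a PA-tagged cDNA display construct, they were digested with trypsin and chymotrypsin and then sequenced. K50 was inferred by Bayesian fitting of counts, and unfolding free energy was derived per protease or combined against a sequence-predicted unfolded-state K50 and a shared folded-state K50.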

[2] = folding stability dG unfold from trypsin proteolysis; higher = more stable
Experimental: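 Folding stability of de novo designed mini-proteins (<80 aa, no Cys; designed by TrROS, TrMRF, ProteinMPNN and the joint model) was measured by cDNA display proteolysis with trypsin and chymotrypsin. Each protease was used at 11 concentrations in a threefold dilution series plus a no-protease condition. K50 was inferred by Bayesian fitting of sequencing counts, and dG unfold was derived against a sequence-predicted unfolded-state K50 (Tsuboyama et al. method). Sequences shown include variable-length N-terminal GS-type padding (SAGGSAGG...) inside a display construct carrying a PA tag. Rows were kept only if the AF2 dimer inter-PAE was >15, to exclude likely homo-oligomers.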

Sequence | folding stability dG unfold [1] [kcal/mol] | folding stability dG unfold [2] [kcal/mol]
SAGGSAGGEPRELEAEVEVIEFPPTGVALAVIRVNDGAEPRLIPVPFDAPEDVTPEELAKKILGSAGGSAGG [r6_20_TrMRF] | < -1 | -0.826 ± 0.63
SAGGSAGGKIEIVIEGLSEEEVEALAKELRDAGLEIEVTVVPPPAPPPLTAEELAKNPEALKALSAGGSAGG [r6_804_TrROS_Hall] | 0.02 ± 0.26 | 0.714 ± 0.053
SAGGSAGGKIRILEEEEDPANGERRLMVMVHNPKGKPHQYPVPLDDADEILEHLPPGMPVEIYPSAGGSAGG [r6_113_TrROS] | -0.514 ± 0.97 | 0.362 ± 0.097
SAGGSAGGKKKFKVEKITEIKVEKLENGEEVIVKIRLKNGEEIEIPAKDIKLEDLPEGAEIEVISAGGSAGG [r6_609_TrROS_Hall] | < -1 | 0.123 ± 0.34
SAGGSAGGMNKIKVTTSVTTFEETVLAGNKTFTVTLLKKTTTITDPNSSKVTTITETKSPEELSSAGGSAGG [r6_752_JUSTAS] | -0.135 ± 0.27 | 0.294 ± 0.27
SAGGSAGGMVTFDTPEELEALIEELLARHPRDVPVDVTIESEDSRYTIKVAPERVEEISESEGSSAGGSAGG [r6_289_JUSTAS] | < -1 | -0.763 ± 0.47
SAGGSAGGMVTVELPGLPTPEEARARAEEVVAAIVAAGHPGEEVTLTVVYPGSGAAETFTVPLASAGGSAGG [r6_238_JUSTAS] | -0.328 ± 0.22 | 0.225 ± 0.059
SAGGSAGGSAGDEKVPFFVRIIDPKNGKPVREFPVEVDPGKIKIPKELAENMPPDNVEIYSAGGSAGGSAGG [r11_725_TrROS] | < -1 | -0.824 ± 0.4
SAGGSAGGSAGEEIIRAAKEAAKAGKKVRIVVPKGMSAEEIAKKLAEELNIEKVEVYELPSAGGSAGGSAGG [r11_524_TrROS_Hall] | -0.142 ± 0.11 | 0.332 ± 0.086
SAGGSAGGSAGGALVVEVEVEGERRTLVVPVPDEIPPGAEEVAKKLGLKDAKVKIAPLDLSAGGSAGGSAGG [r11_219_TrMRF] | < -1 | -0.662 ± 0.53
SAGGSAGGSAGGGAMSPEPLGFKKVETKVEVVGGSPVIVVKLETPEGELELELPPDAKLSAGGSAGGSAGGS [r10_968_JUSTAS] | < -1 | -0.308 ± 0.12
SAGGSAGGSAGGGLYNVVVTGKGEERVLPAKSPDDVKEALEEAGLEIKSIHPETGIVEAGSAGGSAGGSAGG [r7_726_TrMRF] | < -1 | -0.471 ± 0.18
SAGGSAGGSAGGIEELAKKYPNIKIVEVKTVKVTETNKDGKKTEKTKTEIKIYKDGEEISAGGSAGGSAGGS [r10_0_TrROS_Hall] | < -1 | -0.0124 ± 0.2
SAGGSAGGSAGGKIKVVFELPDAPLFLVAEADSPEELLERAVKLEEELGVPLKVVKVEGSAGGSAGGSAGGS [r10_1087_TrMRF] | < -1 | -0.509 ± 0.23
SAGGSAGGSAGGKNMQEVPFPIEIKDPKNGKKIKIPVEVRRNPDDGKYQITPEALEELIKSAGGSAGGSAGG [r7_557_TrROS] | < -1 | -0.809 ± 0.31
SAGGSAGGSAGGMEGFTAVTFTTTTSSNGTRTTTVTTTTPDGTVTTTTTTTPVTPPPNTASAGGSAGGSAGG [r11_998_JUSTAS] | 0.155 ± 0.14 | 0.503 ± 0.07
SAGGSAGGSAGGMITIEEDPNKDLKTVTVYVPEKPKWVTVDVKPSETIEEALAKAEELLKSAGGSAGGSAGG [r7_138_JUSTAS] | -0.514 ± 0.18 | 0.0308 ± 0.064
SAGGSAGGSAGGMKIVLKVPENNPEAEKEAKKLKEEPGLKEVEVEFIPKSLVPEEPVLLSAGGSAGGSAGGS [r10_1110_JUSTAS] | < -1 | -0.334 ± 0.28
SAGGSAGGSAGGMLVLIKTPKKPVLLSEEEVKSNPELLEKLKEEGFPIDGIEFLDKEKLSAGGSAGGSAGGS [r10_396_JUSTAS] | -0.451 ± 0.31 | -0.185 ± 0.1
SAGGSAGGSAGGMNTNPKFVSEEDDKEIYREYNPSTGKETYIIYYPKPNTKKIVPPELISAGGSAGGSAGGS [r10_172_JUSTAS] | < -1 | -0.634 ± 0.23
SAGGSAGGSAGGMPELTVETEGFPDGSYRVVVTNPGTGELVAVAERPSSTSVADFAKELASAGGSAGGSAGG [r7_633_TrMRF] | < -1 | -0.688 ± 0.13
SAGGSAGGSAGGMPLNFSTVETEELPELGATVTTSTAPGYILTETRTPEGVEVQRYPALLSAGGSAGGSAGG [r7_280_JUSTAS] | 0.108 ± 0.2 | 0.86 ± 0.068
SAGGSAGGSAGGMPVTVEVKEEELPGGEKVITVTVTYPDPVVETLEVKKLPPVDPNNKPSAGGSAGGSAGGS [r10_684_JUSTAS] | -0.103 ± 0.3 | 0.294 ± 0.1
SAGGSAGGSAGGMTIKEIMKRFPGGGEIDITEIPGDRITIEMRFPNGNNRRRTIPPDEISAGGSAGGSAGGS [r10_612_TrROS] | -0.582 ± 0.33 | -0.04 ± 0.34
